T1: canine IL-4 (canine, UniProt O77762 25-132, biotin-labeled in the OCTET assay)
T1 sequence (looked up): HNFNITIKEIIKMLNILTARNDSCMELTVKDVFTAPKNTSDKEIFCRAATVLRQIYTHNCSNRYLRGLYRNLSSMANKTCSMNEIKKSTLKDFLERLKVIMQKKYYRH

T2: canine IL-13 (canine, UniProt Q9N0W9 19-131, limits assumed, biotin-labeled in the OCTET assay)
T2 construct: also called cIL-13; canine Interleukin-13
T2 sequence (looked up): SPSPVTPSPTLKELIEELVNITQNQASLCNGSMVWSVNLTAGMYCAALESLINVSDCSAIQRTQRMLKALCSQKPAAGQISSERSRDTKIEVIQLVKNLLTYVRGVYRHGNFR

B1: cIL-4Rα-13Rα2_ZW1-cFc (Fc fusion)
chain 1: VKVLHEPSCFSDYISTSVCQWKMDHPTNCSAELRLSYQLDFMGSENHTCVPENREDSVCVCSMPIDDAVEADVYQLDLWAGQQLLWSGSFQPSKHVKPRTPGNLTVHPNISHTWLLMWTNPYPTENHLHSELTYMVNVSNDNDPEDFKVYNVTYMGPTLRLAASTLKSGASYSARVRAWAQTYNSTWSDWSPSTTWLNYYEPWEQHLPPKRENGRVPRPPDCPKCPAPEMLGGPSVFIFPPKPKDTLLIARTPEVTCVVVDLDPEDPEVQISWFVDGKQMQTAKTQPREEQFNGTYRVVSVLPIGHQDWLKGKQFTCKVNNKALPSPIERTISKARGQAHQPSVYVYPPSREELSKNTVSLTCLIKDFFPPDIDVEWQSNGQQEPESKYRTTPPQLDEDGSYALVSKLSVDKSRWQRGDTFICAVMHEALHNHYTQESLSHSPGK
chain 2: SMLSNAEIKVNPPQDFEIVDPGYLGYLSLQWQPPLFPDNFKECTIEYELKYRNIDSENWKTIITKNLHYKDGFDLNKGIEAKINTLLPAQCTNGSEVRSSWAETTYWTSPQGNRETKIQDMDCVYYNWQYLVCSWKPGMGVHFDTNYQLFYWYEGLDHSAECTDYIKVNGKNMGCRFPYLESSDYKDFYICVNGSSESQPIRPSYFIFQLQNIVKPMPPDYLSLTVKNSEEINLKWNMPKGPIPAKCFIYEIEFTEDGTTWVTTTVENEIQITRTSNESQKLCFLVRSKVNIYCSDDGIWSEWSDEQCWKGDIWKETPKRENGRVPRPPDCPKCPAPEMLGGPSVFIFPPKPKDTLLIARTPEVTCVVVDLDPEDPEVQISWFVDGKQMQTAKTQPREEQFNGTYRVVSVLPIGHQDWLKGKQFTCKVNNKALPSPIERTISKARGQAHQPSVYVLPPSREELSKNTVSLLCLIKDFFPPDIDVEWQSNGQQEPESKYLTWPPQLDEDGSYFLYSKLSVDKSRWQRGDTFICAVMHEALHNHYTQESLSHSPGK
B2: cIL-4Rα-13Rα1_ZW1-cFc (Fc fusion)
chain 1: B1 chain 1
chain 2: GGVAAPTETQPPVTNLSVSVENLCTVIWTWDPPEGASPNCTLRYFSHFDNKQDKKIAPETHRSKEVPLNERICLQVGSQCSTNESDNPSILVEKCTPPPEGDPESAVTELQCVWHNLSYMKCTWLPGRNTSPDTNYTLYYWHSSLGKILQCEDIYREGQHIGCSFALTNLKDSSFEQHSVQIVVKDNAGKIRPSFNIVPLTSHVKPDPPHIKRLFFQNGNLYVQWKNPQNFYSRCLSYQVEVNNSQTETNDIFYVEEAKCQNSEFEGNLEGTICFMVPGVLPDTLNTVRIRVRTNKLCYEDDKLWSNWSQAMSIGENTDPTPKRENGRVPRPPDCPKCPAPEMLGGPSVFIFPPKPKDTLLIARTPEVTCVVVDLDPEDPEVQISWFVDGKQMQTAKTQPREEQFNGTYRVVSVLPIGHQDWLKGKQFTCKVNNKALPSPIERTISKARGQAHQPSVYVLPPSREELSKNTVSLLCLIKDFFPPDIDVEWQSNGQQEPESKYLTWPPQLDEDGSYFLYSKLSVDKSRWQRGDTFICAVMHEALHNHYTQESLSHSPGK
notes: Bispecific heterodimer; also called cIL4Rα-IL13Rα1_ZW1-cFc; cIL-4Rα-IL-13Rα1_ZW1-cFc

Key:
canine IL-4 [1] = biological target: T1, canine IL-4; experiment: cell-based or functional assay
canine IL-4 [2] = biological target: T1, canine IL-4; experiment: BLI (OCTET HTX), biotin-cIL-4 on SA biosensors
Protocol: (§1) The binding constants for the cFc fusion proteins provided in Tables 3 and 4 below, were determined using OCTET® HTX. All kinetics measurements were performed by OCTET® HTX using SA® biosensors and DATA ACQUISITION® 12.0 software. 10 μg/mL of biotin-labeled antigen, either canine IL-4 (cIL-4) or canine IL-13 (cIL-13) were loaded onto the SA® biosensors for 120 seconds. Next, the biosensors were placed into 1×pH 7.0 TBS/Casein buffer for 60 seconds for the blocking phase. For the association phase, antigen loaded biosensors were placed into 2-fold serial dilutions from 1 μM down to 15.6 nM of the wild-type, the bispecific, or the FcRn-mutant receptor Fc-fusions that recognized the cIL-4 or cIL-13 antigen in 1×pH 7.0 TBS/Casein buffer for 30 seconds. The last well was buffer alone and that sensor was used for reference sensor subtraction. Finally, the biosensors were placed into 1×pH 7.0 TBS/Casein buffer for 120 seconds for the dissociation phase. The results were then analyzed using Data Analysis 12.0 software and the curves were fitted using a 1:1 binding model.

canine IL-13 = biological target: T2, canine IL-13; experiment: BLI (OCTET HTX), biotin-cIL-13 on SA biosensors
Protocol: as §1

Binder | IC50 for inhibition of cIL-4 mediated STAT6 phosphorylation in DH82 cells, against that of cIL4Rα-cFc or cIL4Rα-IL13Rα1_ZW1-cFc (canine IL-4 [1]) | fold change of KD against the unmodified cIL-4Rα-cFc homodimer (canine IL-4 [2]) [fold higher] | fold tighter binding against the unmodified IL-13Rα1-cFc (canine IL-13) [fold tighter]
B1 | > 3 orders of magnitude higher | – | –
B2 | – | ~10000 | 8
